Experimental data: US20230174630A1 (UNIVERSITY OF BRITISH COLUMBIA, published 2023)
Each block holds one binder with its values, some of them ahead of it.

Target: T1, endogenous wild type TDP-43 of HEK293 cells (human, UniProt Q13148 1-414)
T1 construct: whole, on cells; Intracellular endogenous protein: nuclear in unstressed cells; also called endogenous, nuclear WT TDP-43; normal nuclear TDP-43
Assay: co-localization immunocytochemistry, intrabody expressed in HEK293 cells

T1 sequence (Q13148 whole entry): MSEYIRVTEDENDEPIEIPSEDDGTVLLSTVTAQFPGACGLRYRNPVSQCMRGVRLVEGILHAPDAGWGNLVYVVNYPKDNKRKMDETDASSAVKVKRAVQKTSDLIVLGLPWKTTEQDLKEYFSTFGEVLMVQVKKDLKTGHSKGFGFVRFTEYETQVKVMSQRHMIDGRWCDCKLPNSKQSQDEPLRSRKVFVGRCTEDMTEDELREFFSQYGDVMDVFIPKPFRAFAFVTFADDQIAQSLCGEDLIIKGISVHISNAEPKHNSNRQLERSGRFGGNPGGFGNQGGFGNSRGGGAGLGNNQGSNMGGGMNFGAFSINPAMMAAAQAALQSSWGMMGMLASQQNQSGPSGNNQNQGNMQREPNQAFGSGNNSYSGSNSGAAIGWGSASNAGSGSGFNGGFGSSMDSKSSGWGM

- binding result: no binding
B1: YPTL-14H1-14K2 (scFv)
scFv: MQEQLEESGGDLVKPEGSLTLTCTASGFSFSSNYVMCWVRQAPGKGLEWVACIWFAGIVDTTYYATWAKGRFTISKTSSTTVTLQMTSLTAADTATYFCARNPVGSVNLWGQGTLVTVSSGGGGSGGGGSGGGGSVMTQTPSSKSVPVGGSVTINCQASESVYSNNRLSWYQQKPGQPPKLLIYYASTLESGVPSRFKGSGFGTHFTLTISGAQCDDAATYYCAGWRGARTDGVDFGGGTEVVVKDYKDDDDKRWRKSHSSSYTPLSGSTYPEGRH

- binding result: no binding
B2: YPTL-2F7 (scFv)
scFv: MDVKLVESGGGLVKLGGSLKLSCAASGFTFSSYYMSWVRQTPEKRLELVATINSNGGSTYYPDTVKGRITISRDNAKNTLQLQMSSLRSEDTALYYCVRQNYEGAYWGQGTLVTVSAGGGGSGGGGSGGGGSDVLMTQTPLSLPVTLGDQASISCRSSQSIVHSNGNTYLEWYLQKPGQSPKLLIYKVSNRFSGVPDRFSGSGSGTDFTLKISRVEAEDLGVYYCFQSSHVPWTFGGGTKLEIKDYKDDDDKRWRKSHSSSYTPLSGSTYPEGRH

- binding result: no binding
B3: MYCL20H-14H1-14K2 (scFv)
scFv: MAIVMTQTPSSKSVPVGGSVTINCQASESVYSNNRLSWYQQKPGQPPKLLIYYASTLESGVPSRFKGSGFGTHFTLTISGAQCDDAATYYCAGWRGARTDGVDFGGGTEVVVKGSTGGGGSGKPGSGEGGGGSQEQLEESGGDLVKPEGSLTLTCTASGFSFSSNYVMCWVRQAPGKGLEWVACIWFAGIVDTTYYATWAKGRFTISKTSSTTVTLQMTSLTAADTATYFCARNPVGSVNLWGQGTLVTVSSGSGEQKLISEEDL
notes: Intrabody: VL-20 aa linker-VH-GSG-MYC tag
